Results on eleven molecules are retold here after patent US20070072177A1 (CRUCELL HOLLAND B V, published 2007).

Assay [1] concerns the target T1, purified rabies virus glycoprotein (rabies virus ERA strain) (rabies virus strain ERA, UniProt P03524 20-524). Put plainly: phage ELISA on coated purified G protein (ERA), anti-M13-HRP. For orientation: In an ELISA, binding on a coated surface is turned into a signal by an enzyme label.
The target in assay [2] is T2, glycoprotein of rabies virus strain CVS-11 (rabies virus strain CVS-11, UniProt O92284 20-524).
T2 sequence: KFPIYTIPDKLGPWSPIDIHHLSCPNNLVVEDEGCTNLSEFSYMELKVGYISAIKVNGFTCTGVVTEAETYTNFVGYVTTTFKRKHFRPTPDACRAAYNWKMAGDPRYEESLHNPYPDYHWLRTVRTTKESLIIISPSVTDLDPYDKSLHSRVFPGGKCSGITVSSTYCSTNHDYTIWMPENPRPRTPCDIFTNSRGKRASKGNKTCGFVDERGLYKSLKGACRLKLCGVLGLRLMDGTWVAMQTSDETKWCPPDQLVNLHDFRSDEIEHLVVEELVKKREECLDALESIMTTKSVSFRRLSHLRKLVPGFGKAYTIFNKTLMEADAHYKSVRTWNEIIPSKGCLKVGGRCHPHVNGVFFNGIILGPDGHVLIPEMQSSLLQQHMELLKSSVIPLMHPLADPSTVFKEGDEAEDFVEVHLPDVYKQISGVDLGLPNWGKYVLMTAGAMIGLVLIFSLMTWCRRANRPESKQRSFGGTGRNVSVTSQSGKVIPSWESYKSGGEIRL
As to the kind of experiment: cell-based or functional assay.

Assay [3] concerns the target T3, rabies virus glycoprotein (G protein) of strain CVS-11 (rabies virus strain CVS-11, UniProt O92284 20-524).
T3 sequence: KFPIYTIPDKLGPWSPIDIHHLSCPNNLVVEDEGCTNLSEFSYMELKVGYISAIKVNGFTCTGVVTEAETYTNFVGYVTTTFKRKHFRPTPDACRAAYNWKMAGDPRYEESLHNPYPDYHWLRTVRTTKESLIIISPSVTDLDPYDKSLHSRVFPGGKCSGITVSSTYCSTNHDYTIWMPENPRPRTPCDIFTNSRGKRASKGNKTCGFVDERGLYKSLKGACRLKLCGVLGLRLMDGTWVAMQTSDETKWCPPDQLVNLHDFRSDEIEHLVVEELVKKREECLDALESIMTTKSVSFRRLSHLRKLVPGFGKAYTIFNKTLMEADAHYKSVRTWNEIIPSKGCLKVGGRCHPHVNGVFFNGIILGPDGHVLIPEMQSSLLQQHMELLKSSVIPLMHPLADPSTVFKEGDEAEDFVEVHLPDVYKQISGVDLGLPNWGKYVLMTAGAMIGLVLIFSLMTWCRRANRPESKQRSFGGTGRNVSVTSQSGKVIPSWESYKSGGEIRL
Put plainly: cell-based or functional assay.

The target in assay [4] is T1, purified rabies virus glycoprotein …. Put plainly: SPR (BIAcore3000), ERA glycoprotein amine-coupled to CM5 chip, antibody injected. (In general: In SPR one partner is held on a chip, and binding of the other changes the refractive index at the surface.)

B1: SC04-140 (scFv)
scFv: AMAQMQLVQSGGGVVQPGRSLRLSCAASGFTFSSYGMHWVRQAPGKGLEWVAVILYDGSNKYYADSVKGRFTISRDNSKNALYLQMNSLRAEDTAVYYCAKVTNPGDAFDIWGQGTMVTVSSGTGGSGGTGSGTGGSTDIQMTQSPSSLSASVGDRVTITCRASQGISSALAWYQQKPGKAPKLLIYDASSLESGVPSRFSGSGSGTDFTLTISSLQPEDFATYYCQQFNSYPLTFGGGTKVEIKRAAA
For the molecule B1, the “OD 492 nm” value in assay [1] amounted to 0.865 OD 492 nm. Also, the “Potency (IU/ml)” value in assay [2] is 1 IU/ml.

B2: CRJB (antibody, V domains shown)
VH: QITLKETGPTLVKPTQTLTLTCTFSGFSLSTSGVGVGWIRQPPGKALEWVTLIYWDDDKRYSPSLENRVTIRKDTSKNQVALTMTNMDPLDTGTYYCAHRQHISSFPWFDSWGQGTLVTVSS
VL: SYVLTQPPSVSVAPGKTARINCGGNNIEYRSVHWYQQKSGQAPVAVIYDNSDRPSGIPERFSGSKSGNTATLTISRVEAGDEADYYCQVWDISSDVVFGGGTKLTVLG
As to B2, in assay [3], the “Neutralizing potency (modified RFFIT)” value came out at 605 IU/mg.

B3: SC04-108 (scFv)
scFv: AMAEVQLVQSGGGLVQPGGSLRLSCAASGFTFSSYGMHWVRQAPGKGLEWVAVILYDGSDKFYADSVKGRFTISRDNSKDTLYLQMNSLRAEDTAVYYCAKFMIVADDAFDIWGQGTMVTVSSGTGGSGGTGSGTGGSTDIQLTQSPSSLSASVGDRVTITCRASQGISSHLVWYQQKPGKAPKSLIYAASSLQSGVPSRFSGSESATDFTLTISSLQPEDFATYYCQQYYSYPITFGQGTRLEIKRAAA
On to B3, for which, in assay [1], the “OD 492 nm” value is 0.363 OD 492 nm. The “Potency (IU/ml)” value in assay [2] came to 1 IU/ml.

B4: SC04-120 (scFv)
scFv: AMAEVQLVQSGGGLVQPGRSLRLSCAASGFTFSTYGMHWVRQAPGKGLEWVATISYDGSIKDYADSEKGRFTISRDNSKNTLYLQMNSLRAEDTAVYYCAKGGKTGEFDYWGQGTLVTVSSGTGGSGGTGSGTGGSTDIQLTQSPSTLSASVGDRVTITCRASQGINSYLAWYQQEPGKAPKLLIYAASTLQSGVPSRFSGSGSGTEFTLTISSLQPEDFATYYCQQLNSYPFTFGPGTKVDIKRAAA
B4: the “OD 492 nm” value in assay [1] was 0.571 OD 492 nm. In addition, in assay [2], the “Potency (IU/ml)” value stood at 6 IU/ml.

B5: SC04-126 (scFv)
scFv: AMAQVTLKESGPTLVNPTQTLTLTCTFSGFSLSTGGVGVGWFRQPPGKALEWLARIDWDDDKYYSTSLKTRLTISKDTSKIQVVLTMTNMDPVDTATYYCARMGFTGTYFDYWGQGTLVTVSSGTGGSGGTGSGTGGSTQSVLTQPPSVSVAPGKTARITCGGNNIGSKSVHWYQQKPGQAPVLVIYYDSDRPSGIPERFSGSNSGNTATLTISRVEAGDEADYYCQVWDSSSDHPYVFGTGTKLTVLGAAA
With B5, the “OD 492 nm” value in assay [1] stood at 0.232 OD 492 nm. In assay [2], the “Potency (IU/ml)” value amounted to 0.1 IU/ml.

B6: SC04-146 (scFv)
scFv: AMAEVQLVQSGGGVVQPGRSLRLSCAASGFTFSSYGMHWVRQAPGKGLEWVATISYDGSIKDYADSEEGRFTISRDNSKNTLYLQMNSLRAEDTAVYYCAKGGKTGEFDYWGQGTLVTVSSGTGGSGGTGSGTGGSTDVVMTQSPATLSVSPGESATLFCRASESVYSNLAWYQHKPGRAPRLLIYGASTRATGIPARFDGTGSGTDFTLTISSLQSEDFAVYYCQQYNDWPITFGQGTRLEIKRAAA
For B6, the “OD 492 nm” value in assay [1] was 0.484 OD 492 nm. For the same molecule, the “Potency (IU/ml)” value in assay [2] was determined as 3 IU/ml.

B7: SC04-125 (scFv)
scFv: AMAQVQLVESGGGVVQPGRSLRLSCAASGFTFSSYGMHWVRQAPGKGLEWVAVISYDGSDKYYADSVKGRFTISRDNSKNTLYLQMNSLRAEDTAVYYCAKIATAGTGFDYWGQGTLVTVSSGTGGSGGTGSGTGGSTDIQMTQSPSSVSASVGDRVTITCRASQGISSYLAWYQQKPGKAPKLLIYDASSLESGVPSRFSGSGSGTEFTLTISSLQPDDFATYYCQQLNSYPLTFGGGTKVEIKRAAA
On to B7, for which, in assay [1], the “OD 492 nm” value came out at 0.735 OD 492 nm. The “Potency (IU/ml)” value in assay [2] came to 3 IU/ml.

B8: CR57 (antibody, V domains shown)
VH: QVQLVQSGAEVKKPGSSVKVSCKASGGTFNRYTVNWVRQAPGQGLEWMGGIIPIFGTANYAQRFQGRLTITADESTSTAYMELSSLRSDDTAVYFCARENLDNSGTYYYFSGWFDPWGQGTLVTVSS
VL: QSALTQPRSVSGSPGQSVTISCTGTSSDIGGYNFVSWYQQHPGKAPKLMIYDATKRPSGVPDRFSGSKSGNTASLTISGLQAEDEADYYCCSYAGDYTPGVVFGGGTKLTVLG
Regarding B8, in assay [3], the “Neutralizing potency (modified RFFIT)” value is 3800 IU/mg.

B9: SC04-144 (scFv)
scFv: AMAQVQLQELGGGVVQPGRSLRLSCAASGFTFGSYGMHWVRQAPGKGLEWVATISYDGSIKDYADSEKGRFTISRDNSKNTLYLQMNSLRAEDTAVYYCAKGGKTGEFDYWGQGTLVTVSSGTGGSGGTGSGTGGSTDIQLTQSPSSLSASVGDRVTITCRASQGISSYLAWYQQKPGKGPKLLIYAASTLQSGVPSRFSGSGSGTDFSLTISSLQPEDLATYYCQQYDSYPLTFGGGTKVEIKRAAA
In the case of B9, the “OD 492 nm” value in assay [1] stood at 0.775 OD 492 nm. Also, in assay [2], the “Potency (IU/ml)” value was 6 IU/ml.

B10: CR04-010 (antibody, V domains shown)
VH: QVQLVESGGDLVQPGRSLRLSCAASGFTFSSYGMHWVRQAPGKGLEWVADISYDGSNKYYADSVKGRFTISRDNSKNTLYLQMNSLRAEDTAVYYCAKDGLDLTGTIQPFGYWGQGTLVTVSS
VL: AIQMTQSPSSLSASVGDRVTITCRASQGIRNDLGWYQQKPGKAPKLLIYAASSLQSGVPSRFSGSGSGTDFTLTISSLQPEDFATYYCLQDYNYPRTFGQGTKVEIKR
Take B10: in assay [3], the “Neutralizing potency (modified RFFIT)” value stood at 3000 IU/mg.

B11: CR04-098 (antibody, V domains shown)
VH: QVQLVESGGGAVQPGRSLRLSCAASGFTFSSYGMHWVRQAPGKGLEWVAVILYDGSDKFYADSVKGRFTISRDNSKNTLYLQMNSLRAEDTAVYYCAKVAVAGTHFDYWGQGTLVTVSS
VL: DIQMTQSPSSLSASVGDRVTITCRASQGIRNDLGWYQQKPGKAPKLLIYAASSLQSGVPSRFSGSGSGTDFTLTISSLQPEDFATYYCQQLNSYPPTFGGGTKVEIKT
The Kd is the constant that tells how readily two partners part at equilibrium. Low readings indicate tighter binding, high ones weaker binding. Molecule B11 came in with a dissociation constant (Kd) in assay [4] of 4.5 nM.
